Measured values taken from IntAct's records for PubMed 20498078.

Assays:
pcd15_mouse Pcdh15 = pcd15_mouse Pcdh15 (UniProt Q99PJ1)
Sequence of pcd15_mouse Pcdh15 (Q99PJ1 whole entry): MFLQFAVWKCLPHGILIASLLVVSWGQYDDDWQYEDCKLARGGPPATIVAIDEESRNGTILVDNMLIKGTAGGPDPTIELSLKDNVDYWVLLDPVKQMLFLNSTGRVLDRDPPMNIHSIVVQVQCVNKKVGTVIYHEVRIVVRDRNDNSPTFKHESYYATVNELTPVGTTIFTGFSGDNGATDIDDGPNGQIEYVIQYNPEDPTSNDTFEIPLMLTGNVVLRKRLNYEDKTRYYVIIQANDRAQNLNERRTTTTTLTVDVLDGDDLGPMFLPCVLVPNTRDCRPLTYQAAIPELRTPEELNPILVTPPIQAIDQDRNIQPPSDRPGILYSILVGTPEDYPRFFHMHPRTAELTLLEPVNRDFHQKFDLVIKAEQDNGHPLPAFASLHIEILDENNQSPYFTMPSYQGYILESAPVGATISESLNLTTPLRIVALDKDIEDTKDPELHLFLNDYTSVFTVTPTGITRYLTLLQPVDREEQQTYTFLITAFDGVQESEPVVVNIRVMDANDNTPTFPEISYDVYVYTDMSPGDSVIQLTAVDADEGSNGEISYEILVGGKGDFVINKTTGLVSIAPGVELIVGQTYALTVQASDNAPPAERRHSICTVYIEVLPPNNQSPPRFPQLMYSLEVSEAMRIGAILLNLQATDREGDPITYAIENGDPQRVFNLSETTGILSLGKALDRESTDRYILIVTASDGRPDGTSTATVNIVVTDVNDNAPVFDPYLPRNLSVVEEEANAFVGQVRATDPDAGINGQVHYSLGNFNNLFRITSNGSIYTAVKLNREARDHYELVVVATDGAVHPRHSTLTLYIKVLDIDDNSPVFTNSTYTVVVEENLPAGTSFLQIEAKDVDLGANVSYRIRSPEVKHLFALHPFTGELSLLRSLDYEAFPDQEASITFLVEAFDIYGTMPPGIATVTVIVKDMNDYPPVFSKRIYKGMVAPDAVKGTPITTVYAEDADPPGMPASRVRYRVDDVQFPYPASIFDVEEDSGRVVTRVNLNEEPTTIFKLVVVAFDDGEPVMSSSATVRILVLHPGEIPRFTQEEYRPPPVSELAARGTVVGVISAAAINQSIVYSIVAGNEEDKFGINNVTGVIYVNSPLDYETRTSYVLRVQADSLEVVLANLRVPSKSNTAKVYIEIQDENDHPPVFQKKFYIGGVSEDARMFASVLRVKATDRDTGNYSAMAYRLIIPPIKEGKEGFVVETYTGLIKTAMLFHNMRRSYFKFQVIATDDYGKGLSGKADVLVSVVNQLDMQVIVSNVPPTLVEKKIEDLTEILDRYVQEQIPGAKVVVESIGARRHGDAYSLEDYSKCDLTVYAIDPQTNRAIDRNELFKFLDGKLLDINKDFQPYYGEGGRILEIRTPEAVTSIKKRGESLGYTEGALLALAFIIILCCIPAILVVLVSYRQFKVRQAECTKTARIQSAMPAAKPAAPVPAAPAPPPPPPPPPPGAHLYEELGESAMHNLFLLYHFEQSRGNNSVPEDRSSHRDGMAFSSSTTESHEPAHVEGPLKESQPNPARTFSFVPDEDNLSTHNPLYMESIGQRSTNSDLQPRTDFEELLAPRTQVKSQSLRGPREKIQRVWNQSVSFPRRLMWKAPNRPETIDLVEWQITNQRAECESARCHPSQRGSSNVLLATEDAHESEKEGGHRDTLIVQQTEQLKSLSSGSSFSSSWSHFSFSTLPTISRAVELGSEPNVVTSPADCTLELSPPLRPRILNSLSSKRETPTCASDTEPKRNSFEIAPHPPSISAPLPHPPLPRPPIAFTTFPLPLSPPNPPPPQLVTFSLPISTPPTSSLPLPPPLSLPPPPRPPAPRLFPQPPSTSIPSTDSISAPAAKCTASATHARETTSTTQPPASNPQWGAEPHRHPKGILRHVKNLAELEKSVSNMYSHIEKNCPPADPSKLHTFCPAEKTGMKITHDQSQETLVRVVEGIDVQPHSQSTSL

Substance: Cadherin-23 (Mus musculus), Q99PF4-1 N26I
- effect of a mutation on the interaction (pcd15_mouse Pcdh15): decreasing interaction

Substance: Cadherin-23 (Mus musculus), Q99PF4-1 N26I;R27I
- effect of a mutation on the interaction (pcd15_mouse Pcdh15): decreasing interaction

Substance: Cadherin-23 (Mus musculus), Q99PF4-1 R27I
- effect of a mutation on the interaction (pcd15_mouse Pcdh15): decreasing interaction

Substance: Protocadherin-15 (Mus musculus), Q99PJ1 E35I;D36A
- effect of a mutation on the interaction (Cdh23, Q99PF4-1): decreasing interaction
